Data from patent US20140087995A1 (published 2014).
Numbered stars: 1 amine (or outer) side, 2 acyl side, 3 side chain; on linkers, the order of the positions; unused ones are H or OH. Bridge positions count the residues as written; N and C are the ends. Side chains are listed from the residue outwards. Ends that are not written are not given here. * marks the point of attachment. C20 diacid = O=C(O)CCCCCCCCCCCCCCCCCCC(=O)*; γGlu = O=C(O)[C@H](CCC(=O)[*:2])N[*:1]; AEEA = NCCOCCOCC(=O)O

Legend:
[1] = molecular target: T1, human calcitonin receptor (human, UniProt P30988 25-474); experiment: ratio IC50 human calcitonin receptor / IC50 human amylin receptor (Assays VII and V)
T1 construct: whole, on cells; Used as membranes prepared from the transfected cells (Assay VII); also called hCTR; hCT
T1 sequence (looked up): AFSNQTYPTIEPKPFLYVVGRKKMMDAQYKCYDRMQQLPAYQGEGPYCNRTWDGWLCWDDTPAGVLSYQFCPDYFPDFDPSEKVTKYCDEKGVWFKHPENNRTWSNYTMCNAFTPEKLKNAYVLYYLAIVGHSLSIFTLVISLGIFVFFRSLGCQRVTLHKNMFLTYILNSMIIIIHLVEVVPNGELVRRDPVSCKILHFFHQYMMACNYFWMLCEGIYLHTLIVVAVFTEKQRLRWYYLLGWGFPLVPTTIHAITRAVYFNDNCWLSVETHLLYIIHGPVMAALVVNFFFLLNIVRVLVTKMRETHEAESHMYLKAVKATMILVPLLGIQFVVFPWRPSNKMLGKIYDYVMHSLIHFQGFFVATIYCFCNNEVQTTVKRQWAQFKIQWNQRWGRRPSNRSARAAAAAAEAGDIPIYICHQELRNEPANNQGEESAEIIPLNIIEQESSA
Method: (§1) The resulting pellet was resuspended, homogenized and centrifuged (20.000 rpm, 15 min) in a buffer containing 20 mM Na-HEPES and 0.1 mM EDTA (pH 7.4, buffer 2). The resulting pellet was resuspended in buffer 2 and protein concentration was measured (BCA protein Assay, Pierce). The homogenate was kept cold during the whole procedure. The membranes were kept at −80° C. until use. The assay was performed in a 384 well Optiplate (PerkinElmer) in a total volume of 40 ul. Membranes were mixed with SPA beads. Final concentration of membranes 35 ng/μL final and SPA beads was 0.05 mg/well. Test-compounds were dissolved in DMSO and further diluted in assay buffer (50 mM Hepes, pH 7.4, 1 mM CaCl2, 5 mM MgCl₂, 0.1% OA and 0.02% Tween20). […] The final mixture was incubated with shaking at 400 rpm for 120 min at 25° C. prior to centrifugation (1500 rpm, 10 min). Samples were analyzed on TopCounter™ (Packard). The IC₅₀ was calculated using (one site binding competition analysis) GraphPad Prism5 as a measure of receptor affinity.
(§2) Membranes were prepared in the following way; the cells were rinsed with PBS and incubated with Versene for approximately 5 min before harvesting. The cells were flushed with PBS and the cell-suspension was centrifuged for 5 min at 1000 rpm. Cells were homogenized (Ultrathurrax) in a buffer containing 20 mM Na-HEPES and 10 mM EDTA (pH 7.4) and centrifuged at 20.000 rpm for 15 min. The resulting pellet was resuspended, homogenized and centrifuged (20.000 rpm, 15 min) in a buffer containing 20 mM Na-HEPES and 0.1 mM EDTA (pH 7.4, buffer 2). The resulting pellet was resuspended in buffer 2 and protein concentration was measured (BCA protein Assay, Pierce). The homogenate was kept cold during the whole procedure. The membranes were kept at −80° C. until use. Assay was performed in a 384 well Optiplate (PerkinElmer) in a total volume of 40 ul. Membranes were mixed with SPA beads.

rat calcitonin receptor [2] = molecular target: T2, rat calcitonin receptor (rat, UniProt P32214 25-516); experiment: SPA competition with 125I-calcitonin, membranes of BHK cells with rat CTR (Assay VIII)
T2 construct: whole, on cells; Used as membranes prepared from BHK tk'ts 13 cells transiently transfected with the rat calcitonin receptor (Assay VIII); also called rCTR; rat calcitonin (a) receptor
T2 sequence (looked up): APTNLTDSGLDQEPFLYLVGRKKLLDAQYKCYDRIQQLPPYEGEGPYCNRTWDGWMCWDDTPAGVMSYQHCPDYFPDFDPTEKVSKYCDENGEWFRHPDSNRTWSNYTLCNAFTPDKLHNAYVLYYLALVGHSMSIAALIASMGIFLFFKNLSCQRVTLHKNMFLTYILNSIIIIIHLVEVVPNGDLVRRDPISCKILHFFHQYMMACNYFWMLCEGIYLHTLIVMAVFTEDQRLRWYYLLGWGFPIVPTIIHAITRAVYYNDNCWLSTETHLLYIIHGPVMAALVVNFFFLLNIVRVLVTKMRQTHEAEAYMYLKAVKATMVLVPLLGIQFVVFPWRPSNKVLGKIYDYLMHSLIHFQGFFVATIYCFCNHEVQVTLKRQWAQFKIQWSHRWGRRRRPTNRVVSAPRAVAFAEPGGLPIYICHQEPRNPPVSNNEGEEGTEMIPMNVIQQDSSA

rat calcitonin receptor [3] = molecular target: T2, rat calcitonin receptor; experiment: IC50 on rat CTR divided by IC50 on rat amylin receptor (Assays VIII/VI)
[4] = molecular target: T3, rat amylin receptor (rat calcitonin receptor + rat RAMP 3) (rat, UniProt P32214 25-516; Q9JJ73 23-147); experiment: SPA competition with 125I-rat amylin, membranes of BHK cells with rat CTR + rat RAMP3 (Assay VI)
T3 construct: whole, on cells; Used as membranes prepared from BHK tk'ts 13 cells transiently transfected with rat calcitonin receptor and rat RAMP 3 (Assay VI); also called rAmylin-R; rat amylin 3(a) receptor
T3 sequence (looked up) 1: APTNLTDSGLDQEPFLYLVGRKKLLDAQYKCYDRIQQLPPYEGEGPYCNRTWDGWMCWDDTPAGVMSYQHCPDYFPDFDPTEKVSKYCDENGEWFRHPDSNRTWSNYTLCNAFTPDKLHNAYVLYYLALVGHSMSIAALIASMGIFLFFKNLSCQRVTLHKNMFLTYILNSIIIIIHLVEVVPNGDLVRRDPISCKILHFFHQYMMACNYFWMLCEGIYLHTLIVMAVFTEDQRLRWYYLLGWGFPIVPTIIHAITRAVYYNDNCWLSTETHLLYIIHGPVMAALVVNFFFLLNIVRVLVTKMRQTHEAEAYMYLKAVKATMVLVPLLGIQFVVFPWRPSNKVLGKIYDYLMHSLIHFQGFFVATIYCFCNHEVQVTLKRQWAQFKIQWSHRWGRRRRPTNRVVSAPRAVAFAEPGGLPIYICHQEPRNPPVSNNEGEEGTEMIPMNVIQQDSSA
T3 sequence (looked up) 2: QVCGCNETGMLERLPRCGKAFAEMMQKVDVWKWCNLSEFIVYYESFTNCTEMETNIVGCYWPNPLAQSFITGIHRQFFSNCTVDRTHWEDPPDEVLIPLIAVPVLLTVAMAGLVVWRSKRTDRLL
Method: The binding assay was performed using scintillation proximity assay (SPA) beads (RPNQ0001) from PerkinElmer and cell membranes from the Amylin 3(a)/CRE-luc cells (as described in Assay (II)) were used. Membranes were prepared in the following way; the cells were rinsed with PBS and incubated with Versene for approximately 5 min before harvesting. The cells were flushed with PBS and the cell-suspension was centrifuged for 5 min at 1000 rpm. Cells were homogenized (ultrathurrax) in a buffer containing 20 mM Na-HEPES and 10 mM EDTA (pH 7.4) and centrifuged at 20.000 rpm for 15 min. The resulting pellet was resuspended, homogenized and centrifuged (20.000 rpm, 15 min) in a buffer containing 20 mM Na-HEPES and 0.1 mM EDTA (pH 7.4, buffer 2). The resulting pellet was resuspended in buffer 2 and protein concentration was measured (BCA protein Assay, Pierce). The homogenate was kept cold during the whole procedure. The membranes were kept at −80° C. until use. The assay was performed in a 384 well Optiplate (PerkinElmer) in a total volume of 40 ul. Membranes were mixed with SPA beads. Final concentration of membranes 35 ng/μL final and SPA beads was 0.05 mg/well. Test-compounds were dissolved in DMSO and further diluted in assay buffer (50 mM Hepes, pH 7.4, 1 mM CaCl2, 5 mM MgCl₂, 0.1% OA and 0.02% Tween20). […] The final mixture was incubated with shaking at 400 rpm for 120 min at 25° C. prior to centrifugation (1500 rpm, 10 min). Samples were analyzed on TopCounter™ (Packard). The IC₅₀ was calculated using (one site binding competition analysis) GraphPad Prism5 as a measure of receptor affinity.
Cells were grown in DMEM with 10% FBS and 1% Pen/Strep. Approximately 48 hours after transfection, the cells were harvested and membranes were prepared.

[5] = molecular target: T4, human calcitonin receptor (human, UniProt P30988 25-474); experiment: IC50 on human CTR divided by IC50 on human amylin receptor (Assays VII/V)
T4 construct: whole, on cells; Used as membranes prepared from a BHK tk'ts 13 cell line stably transfected with the human calcitonin receptor (Assay VII); also called hCTR; hCT
T4 sequence (looked up): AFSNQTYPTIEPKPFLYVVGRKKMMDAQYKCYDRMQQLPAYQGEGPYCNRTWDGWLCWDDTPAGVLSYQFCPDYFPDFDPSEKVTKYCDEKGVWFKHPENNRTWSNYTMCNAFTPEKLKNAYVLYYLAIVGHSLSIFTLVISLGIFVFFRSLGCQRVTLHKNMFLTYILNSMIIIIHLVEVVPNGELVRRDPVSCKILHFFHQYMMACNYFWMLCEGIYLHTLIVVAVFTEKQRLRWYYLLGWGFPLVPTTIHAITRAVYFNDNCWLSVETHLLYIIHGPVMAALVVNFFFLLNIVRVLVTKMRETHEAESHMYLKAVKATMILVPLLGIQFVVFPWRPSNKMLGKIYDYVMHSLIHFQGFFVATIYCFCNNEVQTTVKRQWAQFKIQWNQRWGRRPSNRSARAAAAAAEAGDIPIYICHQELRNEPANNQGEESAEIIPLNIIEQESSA
Method: as §1, §2

Binder | Ratio hCT/hAmylin binding [1] | IC50 (rat calcitonin receptor [2]) [nM] | Ratio rCT/rAmylin binding (rat calcitonin receptor [3]) | IC50 [4] [nM] | Ratio hCT/hAmylin binding [5]
{C20 diacid-γGlu-γGlu}-KCNTATCATQRLAEFLRHSSPNFGAIPSSTNVGSNTY-NH2 (disulfide 2-7; SMILES CC[C@H](C)[C@H](NC(=O)[C@H](C)NC(=O)CNC(=O)[C@H](Cc1ccccc1)NC(=O)[C@H](CC(N)=O)NC(=O)[C@@H]1CCCN1C(=O)[C@H](CO)NC(=O)[C@H](CO)NC(=O)[C@H](Cc1c[nH]cn1)NC(=O)[C@H](CCCNC(=N)N)NC(=O)[C@H](CC(C)C)NC(=O)[C@H](Cc1ccccc1)NC(=O)[C@H](CCC(=O)O)NC(=O)[C@H](C)NC(=O)[C@H](CC(C)C)NC(=O)[C@H](CCCNC(=N)N)NC(=O)[C@H](CCC(N)=O)NC(=O)[C@@H](NC(=O)[C@H](C)NC(=O)[C@@H]1CSSC[C@H](NC(=O)[C@H](CCCCN)NC(=O)CC[C@H](NC(=O)CC[C@H](NC(=O)CCCCCCCCCCCCCCCCCCC(=O)O)C(=O)O)C(=O)O)C(=O)N[C@@H](CC(N)=O)C(=O)N[C@@H]([C@@H](C)O)C(=O)N[C@@H](C)C(=O)N[C@@H]([C@@H](C)O)C(=O)N1)[C@@H](C)O)C(=O)N1CCC[C@H]1C(=O)N[C@@H](CO)C(=O)N[C@@H](CO)C(=O)N[C@H](C(=O)N[C@@H](CC(N)=O)C(=O)N[C@H](C(=O)NCC(=O)N[C@@H](CO)C(=O)N[C@@H](CC(N)=O)C(=O)N[C@H](C(=O)N[C@@H](Cc1ccc(O)cc1)C(N)=O)[C@@H](C)O)C(C)C)[C@@H](C)O, Derivative of human amylin; also called compound 15) | 26 |  |  |  | 
K([AEEA-C20 diacid])CNTATCATQRLANFLRHSSPNFGAIPSSTNVGSNTY-NH2 (disulfide 2-7; N-terminus assumed; SMILES CC[C@H](C)[C@H](NC(=O)[C@H](C)NC(=O)CNC(=O)[C@H](Cc1ccccc1)NC(=O)[C@H](CC(N)=O)NC(=O)[C@@H]1CCCN1C(=O)[C@H](CO)NC(=O)[C@H](CO)NC(=O)[C@H](Cc1c[nH]cn1)NC(=O)[C@H](CCCNC(=N)N)NC(=O)[C@H](CC(C)C)NC(=O)[C@H](Cc1ccccc1)NC(=O)[C@H](CC(N)=O)NC(=O)[C@H](C)NC(=O)[C@H](CC(C)C)NC(=O)[C@H](CCCNC(=N)N)NC(=O)[C@H](CCC(N)=O)NC(=O)[C@@H](NC(=O)[C@H](C)NC(=O)[C@@H]1CSSC[C@H](NC(=O)[C@@H](N)CCCCNC(=O)COCCOCCNC(=O)CCCCCCCCCCCCCCCCCCC(=O)O)C(=O)N[C@@H](CC(N)=O)C(=O)N[C@@H]([C@@H](C)O)C(=O)N[C@@H](C)C(=O)N[C@@H]([C@@H](C)O)C(=O)N1)[C@@H](C)O)C(=O)N1CCC[C@H]1C(=O)N[C@@H](CO)C(=O)N[C@@H](CO)C(=O)N[C@H](C(=O)N[C@@H](CC(N)=O)C(=O)N[C@H](C(=O)NCC(=O)N[C@@H](CO)C(=O)N[C@@H](CC(N)=O)C(=O)N[C@H](C(=O)N[C@@H](Cc1ccc(O)cc1)C(N)=O)[C@@H](C)O)C(C)C)[C@@H](C)O, Analogue of human amylin; also called compound 43) [N^ε1-[2-[2-[2-(19-carboxynonadecanoylamino)ethoxy]ethoxy]acetyl]-[Arg17,Pro21,Pro27]-h-amylin] |  | 7.6 | 69.1 | 0.11 | 34.7
K([AEEA-γGlu-C20 diacid])CNTATCATQRLAAFLRHSSPNFGAIPSSTPVGSNTY-NH2 (disulfide 2-7; N-terminus assumed; SMILES CC[C@H](C)[C@H](NC(=O)[C@H](C)NC(=O)CNC(=O)[C@H](Cc1ccccc1)NC(=O)[C@H](CC(N)=O)NC(=O)[C@@H]1CCCN1C(=O)[C@H](CO)NC(=O)[C@H](CO)NC(=O)[C@H](Cc1c[nH]cn1)NC(=O)[C@H](CCCNC(=N)N)NC(=O)[C@H](CC(C)C)NC(=O)[C@H](Cc1ccccc1)NC(=O)[C@H](C)NC(=O)[C@H](C)NC(=O)[C@H](CC(C)C)NC(=O)[C@H](CCCNC(=N)N)NC(=O)[C@H](CCC(N)=O)NC(=O)[C@@H](NC(=O)[C@H](C)NC(=O)[C@@H]1CSSC[C@H](NC(=O)[C@@H](N)CCCCNC(=O)COCCOCCNC(=O)CC[C@H](NC(=O)CCCCCCCCCCCCCCCCCCC(=O)O)C(=O)O)C(=O)N[C@@H](CC(N)=O)C(=O)N[C@@H]([C@@H](C)O)C(=O)N[C@@H](C)C(=O)N[C@@H]([C@@H](C)O)C(=O)N1)[C@@H](C)O)C(=O)N1CCC[C@H]1C(=O)N[C@@H](CO)C(=O)N[C@@H](CO)C(=O)N[C@H](C(=O)N1CCC[C@H]1C(=O)N[C@H](C(=O)NCC(=O)N[C@@H](CO)C(=O)N[C@@H](CC(N)=O)C(=O)N[C@H](C(=O)N[C@@H](Cc1ccc(O)cc1)C(N)=O)[C@@H](C)O)C(C)C)[C@@H](C)O, Analogue of human amylin; also called compound 72) |  | 221 | 259 | 0.851 | 247
